Experiments:
H3K9me3 peptide = molecular target: T1, H3K9me3 peptide (Homo sapiens, UniProt P68431); assay: SPR, immobilized H3K9me3 peptide; format: binding; details: 0.1 µM hHP1β WT bound, 950 RU; 1 or 20 μM free H3K9me3, 20 μM H3K9me0 peptide
T1 construct: C-terminally biotinylated histone H3 peptides (aa 1–20)
Method: SPR measurements were performed on a Biacore 2000 instrument (GE Healthcare, Buckinghamshire, UK) at 298 K in 10 mM triethanolamine (pH 7.5), 150 mM NaCl, 0.1 mM EDTA, 1 mM DTT, 0.005% (v/v) Tween-20. Biotinylated ligands were immobilized on streptavidin-coated sensor chips SA (GE Healthcare, Buckinghamshire, UK). Before immobilization, sensor chips were conditioned as described by the manufacturer. To obtain low surface densities (5–24 RU), 5 nM biotinylated H3 peptide was injected at a low rate of 10 μl min^−1 using varying contact times. High surface densities (>700 RU) were prepared by injecting […] peptide (10 μl min^−1) until the SA surface was saturated. Peptide-containing chips were regenerated by applying three short pulses of 0.05% (w/v) SDS followed by an injection of 1.5 M NaCl for baseline stabilization. For binding assays, hHP1β proteins were injected at […] (serial twofold dilutions) for 2 min (30 μl/min). Dissociation was recorded for up to 5 min. A streptavidin surface without ligands served as reference. In addition, blank runs were performed for double referencing. Data evaluation was performed by steady-state analysis assuming a Langmuir 1:1 binding model using BIAevaluation 4.1 and Prism 5.04 (GraphPad, CA, USA) software. Binding to the unmodified peptides was analysed with maximum binding (RUmax) set to the corresponding values obtained with the modified peptides.
Figure S8 Hiragami-Hamada et al.
20 30 one site-specific 20 30 one site-specific […]
time [s] concentration [ μM] time [s] concentration [ μM]
40 two site-specific 40 one site-specific […]
time [s] concentration [ μM]
Supplementary Figure 8: hHP1β binds nucleosomes as dimer.
(a) Dynamic light scattering (DLS) analysis of recombinant hHP1β WT (blue) and I161A (red).
(b) SPR response traces of injection of hHP1β WT into Biacore cells containing biotinylated H3K9me3-peptide immobilized on a sensory chip via covalently coated streptavidin. Immobilized peptide was at 24
RU. Injection series are from 0.024 to 50 µM protein concentration.
(c) Blot of signal over concentration of the titration in (b) to deduce an apparent Kd value. Best fitting was achieved by one site-specific binding model.
(d ) Same analysis as in (b) but with hHP1β I161A.
(e) Blot of signal over concentration of the titration in (d) to deduce an apparent Kd value. […]
(also on this page, place not known: dimer . hHP1 β H3K9me3 - se nsory ( b) site -specific ( b) hHP1 β ( d) site -specific hHP1 β modifi ed H3K9me3 -mononucleosomes H3 -tails -30 -50 -8 -4 200 -10 110 -50 -10 -30 [μM] [μM] -10 190 150 -10 110 200 -10 110 μl/min μl/min μl/min -50 150 response [RU] response [RU] response [RU] response [RU] response [RU] [μM] 10 50 response [RU]40 0 0 [μM] 10 30 50 response [RU] 40 0 0 40 [μM] 10 30 50 response [RU] 140 40 0 120 0 40 response [RU] response [RU] response [RU] Kd Kd μM Kd μM 0.8 0.6 0.4 0.2 0 1 1.0 0.8 0.6 0.4 0.2 0.0 mass fraction)

H3K9me3 oligonucleosomes [1] = assay: Chromatin sedimentation (clustering), H3K9me3 oligonucleosomes; format: biochemical, Xenopus laevis; details: 150 mM NaCl, saturating protein (5 μM) or titration, EtBr fluorescence, n=3
Method: Figure 3 hHP1β clusters oligonuclesomal arrays in dependence of H3K9me3. (a) Oligonucleosomes (2.5 nM) were incubated with increasing concentrations of hHP1β WT or I161A at 150 mM NaCl. DNA remaining in the supernatant after centrifugation was incubated with EtBr and measured by fluorescence reading. Data were normalized to amounts in absence of added protein. Averages of three independent experiments are plotted; error bars represent s.d.; n=3. (b) Analysis of the hydrodynamic radius of oligonucleosomes (10 nM; DNA labelled with ATTO 610) in the presence of increasing concentrations of hHP1β WT or I161A by FCS at 150 mM NaCl. For details on experimental setup see Supplementary Fig. 3. Error bars represent s.d.; n=3. (c) Oligonucleosomes were reconstituted after mixing H3K9me0 and H3K9me3 octamers at different ratio. Chromatin precipitation analysis at 150 mM NaCl was carried out with hHP1β WT at saturating concentration. Data are presented as in a. (d) Precipitation behaviour of oligonucleosomes (2.5 nM) was analysed at different concentrations of NaCl with hHP1β WT at saturating concentration. Data are presented as in a. (e) H3K9me3-containing chromatin was reconstituted using wild-type core histones or tailless H2A, H2B or H4. Oligonucleosomes (2.5 nM) were incubated with increasing concentrations of hHP1β WT at 150 mM NaCl. Data are presented as in a. (f) Chromatin coprecipitation of hHP1β with H3K9me3-containing oligonucleosomes reconstituted with wild-type or tailless core histones at the indicated concentrations of MgCl2. Precipitated material was analysed by western blotting. The region of the western blot membrane of the experiment at 7.5 mM MgCl2 containing histones was stained with Ponceau. (g) Oligonucleosomes at 50 mM NaCl were incubated with hHP1β WT or I161A. Complexes were fixed with 0.05% (v/v) glutaraldehyde, spotted on mica surfaces and analysed by scanning force microscopy. Control, no protein added; scale bar, 100 nm. (h) Quantification of results representatively shown in g according to the classification on the top: A, extended; B, partially condensed; C, fully condensed; D; aggregates; n>50 for each condition.
For saturating conditions, 2.7 nM oligonucleosomes were incubated with 5 μM hHP1β proteins in 100 μl sedimentation buffer (10 mM triethanolamine (pH 7.5), 150 mM NaCl, 0.1 mM EDTA) for 1 h on ice. For non-saturating conditions, 3 μM recombinant proteins were used and the NaCl concentration in the sedimentation buffer was lowered to 100 mM. After incubation, 40 μl per sample was placed into a well of a 96-well plate and kept as ‘input'. The rest was centrifuged at 16,100g for 30 min at 4°C. 40 μl supernatant was carefully removed and placed into a 96-well plate (‘output'). For quantification of chromatin DNA, the input and output samples were incubated with 40 μl 0.5 μg ml^−1 ethidium bromide and fluorescence was measured on a Plate CHAMELEON II fluorescence plate reader (Hidex, Turku, Finland) using a 360 nm (±5 nm) excitation filter and a 612 nm (±5 nm) emission filter. For each sample the ratio of DNA concentrations after and before centrifugation (output/input) was calculated.
Supplementary Table 1: Summary of conditions used in the different experiments of this study. experiment result modification template Temp. [NaCl] [MgCl2] […]
chromatin Fig. 1e,f; Fig. S1f-h; H3K9me3 oligo- 4 150 5 coprecipitation Fig. S2b nucleosomes
Fig. S7d,f; Fig.S9c nucleosomes […]
chromatin sedimentation Fig. 4a; H3K9me3 oligo- 4 150 0
(single point) Fig. S3b nucleosomes […]
chromatin sedimentation. oligo-(titration) Fig. 3a H3K9me3 nucleosomes 4 150 0 […]
crosslinking Fig. S6e,f nucleosomes […]
crosslinking Fig. S7a,b nucleosomes
EMSA Fig. 1g; Fig. 5c; n//a RT 100 5
1Preincubation of oligonucleosomes and h HP1β was performed at 4 °C . Measurements wer e carried out at the in dicated te mperature.
2in increments o f 0 .5 mM
3MgCl2 was added at the end of incubation to coprecipitate oligonucleosomes a nd bound hHP1β.

[2] = system: chromatin reporter array in U2OS cells; assay: Chromatin reporter array (LacO) unfolding; format: cell-based; details: doxycycline 1 μg ml^−1 24 h, LacI-tethered, n>300
Text: Figure 7 hHP1β dimerization is required for maintaining condensed cellular chromatin states. (a) Schematic diagram of the transgene system used to test chromatin compaction effects of hHP1β. A tandem array of the construct has been integrated into the genome of U2OS mammalian cells. Dox, doxycycline; rtTA, reverse tetracycline-controlled TET-VP16 transactivator, whose binding to tetracycline responsive elements (RE) is activated by doxycycline. (b) Together with mCherry-LacI, the indicated fusion proteins were transiently expressed in U2OS cells containing the chromatin reporter array as described in a. Representative confocal images in the absence or after induction of transcription from the array with doxycycline (Dox) are shown. DNA was stained with DAPI. Inlets show enlarged chromatin reporter array; scale bar, 10 μm. (c) Quantification of the results shown in b together with results of similar experiments using additional hHP1β mutant proteins. Averages of three independent experiments are plotted; error bars represent s.d.; n>300 for each condition; asterisks represent P<0.05 according to Student's t-test.
U2OS 2-6-3 CLTon cells[38] were kindly provided by Dr Supriya Prasanth (University of Illinois, IL, USA) and maintained in DMEM (high glucose+GlutaMax) (GIBCO/Invitrogen, Darmstadt, Germany) supplemented with 10% (v/v) TET system approved fetal bovine serum (Clontech, Saint-Germain-en-Laye, France), 50 μg ml^−1 hygromycin (Carl Roth, Karlsruhe, Germany) and 200 μg ml^−1 G418 (Clontech, Saint-Germain-en-Laye, France). For fluorescence microscopy, cells were grown on coverslips in a six-well plate without antibiotics. 500 ng plasmid DNA was transfected using Lipofectamine LTX and Plus reagent (Invitrogen, Darmstadt, Germany). 20 h post transfection, cells were treated with 1 μg ml^−1 doxycycline for 24 h for induction of rtTA expression. Cells were washed twice with PBS and fixed with 3.7% (v/v) formaldehyde/PBS for 10 min at RT. […] P values (according to Student's t-test) were calculated using GraphPad QuickCals (GraphPad, CA, USA).

mouse fibroblasts = assay: Subnuclear distribution of EGFP fusion proteins; format: cell-based; details: GFP fusions transiently expressed, n >100
Text: Supplementary Figure 11: Subnuclear distribution of hHP1 β wild type and mutant proteins .
(a) The indicated proteins fused to EGFP were transiently expressed in mouse fibroblast cells.
Representative fluorescence confocal images are shown. DNA was stained with DAPI. Scale bar […]
(b) Quantification of the subnuclear distribution of the hHP1β WT and mutant proteins analyzed as in ( a) by visual inspection. EGFP signal in each transfected cell was categoriz ed into ‘dotted’ (see WT distribution in panel a) or ‘diffuse’ (see distribution of I161A in panel a). n >100 for each condition.
(1 picture or pasted object on this page, not shown here)

H3K9me3 oligonucleosomes [3] = assay: Chromatin coprecipitation, H3K9me3 oligonucleosomes; format: binding, Xenopus laevis; details: 6.7 nM oligonucleosomes, 1 μM protein, 150 mM NaCl, 5 mM MgCl2, 1 h on ice
Method: 6.7 nM oligonucleosomes were incubated with 1 μM recombinant protein in 100 μl binding buffer (10 mM triethanolamine (pH 7.5), 150 mM NaCl, 5 mM MgCl2, 0.1 mM EDTA, 0.1% (v/v) Triton-X100) for 1 h on ice. Precipitated chromatin complexes were recovered by centrifugation at 16,100g for 30 min at 4°C. Pellets were washed once with 0.5 ml binding buffer and centrifuged for 15 min at 4 °C. Precipitated material was resuspended in 10 μl 1 × SDS loading buffer and boiled for 5 min before running on SDS–PAGE.
Supplementary Table 1: Summary of conditions used in the different experiments of this study.
experiment result modification template Temp. [NaCl] [MgCl2]
chromatin Fig. 1e,f; Fig. S1f-h; H3K9me3 oligo- 4 150 5

## H3K9me0: free unmodified H3 tail peptide used as competitor [reference compound]
H3K9me3 peptide
  competition of residual hHP1β WT SPR signal by free H3 peptide: competed specifically with free H3K9me3 peptide ligand but not H3K9me0

## H3K9me3 peptide: free H3K9me3 tail peptide used as competitor [reference compound]
H3K9me3 peptide
  competition of residual hHP1β WT SPR signal by free H3 peptide: competed specifically

## hHP1β W42A: CD point mutant of hHP1β, abolishing H3K9me3 binding
H3K9me3 oligonucleosomes [1]
  chromatin clustering/aggregation, H3K9me3: failed to cluster oligonucleosomes
[2]
  unfolding of the array on activation: behaved very similar to the WT protein
Mouse fibroblasts
  subnuclear distribution: diffuse distribution
H3K9me3 oligonucleosomes [3]
  recovery with H3K9me3 oligonucleosomes: loss of recovery of hHP1β with H3K9me3 oligonucleosomes

— paper PMC4838890, “Dynamic and flexible H3K9me3 bridging via HP1β dimerization establishes a plastic state of condensed chromatin” (Nature Communications, 2016)
